How the values were obtained:
Assay in all cases: Kinase Profiling Assay
Type in all cases: biochemical
Settings in all cases: for % activity: 100 μM
EphB4(h) = target: T1, EphB4(h) (Homo sapiens, UniProt P54760)
T1 sequence (P54760 16-987): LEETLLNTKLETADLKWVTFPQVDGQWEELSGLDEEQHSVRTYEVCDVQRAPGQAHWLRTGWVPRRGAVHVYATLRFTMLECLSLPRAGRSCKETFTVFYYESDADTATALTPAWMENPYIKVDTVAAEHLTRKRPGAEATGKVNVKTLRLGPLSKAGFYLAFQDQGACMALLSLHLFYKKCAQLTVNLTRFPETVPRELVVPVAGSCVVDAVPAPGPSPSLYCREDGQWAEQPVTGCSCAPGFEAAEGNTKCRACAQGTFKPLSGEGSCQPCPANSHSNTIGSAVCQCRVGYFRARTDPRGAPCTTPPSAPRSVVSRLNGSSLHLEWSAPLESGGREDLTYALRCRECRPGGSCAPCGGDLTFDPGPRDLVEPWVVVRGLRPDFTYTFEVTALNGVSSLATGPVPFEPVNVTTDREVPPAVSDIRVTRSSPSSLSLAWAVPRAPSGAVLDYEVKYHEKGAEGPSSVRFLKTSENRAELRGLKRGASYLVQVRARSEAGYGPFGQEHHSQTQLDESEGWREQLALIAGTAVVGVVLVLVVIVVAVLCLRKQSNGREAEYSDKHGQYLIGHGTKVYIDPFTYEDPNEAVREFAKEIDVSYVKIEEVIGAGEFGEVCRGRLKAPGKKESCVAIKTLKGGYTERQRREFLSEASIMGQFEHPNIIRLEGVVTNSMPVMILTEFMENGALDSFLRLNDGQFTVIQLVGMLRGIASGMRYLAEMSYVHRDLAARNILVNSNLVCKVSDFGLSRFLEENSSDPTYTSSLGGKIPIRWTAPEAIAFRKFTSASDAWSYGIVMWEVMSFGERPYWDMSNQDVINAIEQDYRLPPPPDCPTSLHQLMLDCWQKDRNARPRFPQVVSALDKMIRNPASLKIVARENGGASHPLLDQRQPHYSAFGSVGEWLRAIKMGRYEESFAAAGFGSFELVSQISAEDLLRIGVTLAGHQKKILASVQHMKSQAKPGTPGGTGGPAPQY

Fms(h) = Fms(h) (Homo sapiens, UniProt P07333)
IRR(h) = IRR(h) (Homo sapiens, UniProt P14616)
PKD2(h) = target: T2, PKD2(h) (Homo sapiens, UniProt Q9BZL6)
T2 sequence (Q9BZL6 1-878): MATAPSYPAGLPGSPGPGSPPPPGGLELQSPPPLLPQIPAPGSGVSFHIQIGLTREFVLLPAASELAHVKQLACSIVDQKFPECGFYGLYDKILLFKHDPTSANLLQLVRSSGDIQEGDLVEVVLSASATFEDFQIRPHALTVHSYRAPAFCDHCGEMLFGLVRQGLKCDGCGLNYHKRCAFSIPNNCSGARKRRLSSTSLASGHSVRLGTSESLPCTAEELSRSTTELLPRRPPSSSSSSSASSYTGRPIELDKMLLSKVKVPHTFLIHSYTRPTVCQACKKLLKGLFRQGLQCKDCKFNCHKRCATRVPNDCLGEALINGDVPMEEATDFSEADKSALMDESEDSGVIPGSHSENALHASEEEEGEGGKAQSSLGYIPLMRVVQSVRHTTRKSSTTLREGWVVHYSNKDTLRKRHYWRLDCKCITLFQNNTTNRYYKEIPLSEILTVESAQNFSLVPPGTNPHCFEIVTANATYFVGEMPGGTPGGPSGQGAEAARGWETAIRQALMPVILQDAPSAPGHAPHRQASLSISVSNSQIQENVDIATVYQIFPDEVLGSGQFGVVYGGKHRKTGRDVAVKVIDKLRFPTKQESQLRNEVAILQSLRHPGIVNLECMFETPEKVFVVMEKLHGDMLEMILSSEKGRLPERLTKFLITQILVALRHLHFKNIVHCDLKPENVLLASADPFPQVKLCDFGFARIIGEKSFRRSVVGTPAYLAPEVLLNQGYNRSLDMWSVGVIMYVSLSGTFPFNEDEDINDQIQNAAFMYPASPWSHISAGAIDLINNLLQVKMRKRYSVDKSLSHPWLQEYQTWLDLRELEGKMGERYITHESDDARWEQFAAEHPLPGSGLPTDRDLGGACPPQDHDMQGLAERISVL

Txk(h) = target: T3, Txk(h) (Homo sapiens, UniProt P42681)
T3 sequence (P42681 1-527): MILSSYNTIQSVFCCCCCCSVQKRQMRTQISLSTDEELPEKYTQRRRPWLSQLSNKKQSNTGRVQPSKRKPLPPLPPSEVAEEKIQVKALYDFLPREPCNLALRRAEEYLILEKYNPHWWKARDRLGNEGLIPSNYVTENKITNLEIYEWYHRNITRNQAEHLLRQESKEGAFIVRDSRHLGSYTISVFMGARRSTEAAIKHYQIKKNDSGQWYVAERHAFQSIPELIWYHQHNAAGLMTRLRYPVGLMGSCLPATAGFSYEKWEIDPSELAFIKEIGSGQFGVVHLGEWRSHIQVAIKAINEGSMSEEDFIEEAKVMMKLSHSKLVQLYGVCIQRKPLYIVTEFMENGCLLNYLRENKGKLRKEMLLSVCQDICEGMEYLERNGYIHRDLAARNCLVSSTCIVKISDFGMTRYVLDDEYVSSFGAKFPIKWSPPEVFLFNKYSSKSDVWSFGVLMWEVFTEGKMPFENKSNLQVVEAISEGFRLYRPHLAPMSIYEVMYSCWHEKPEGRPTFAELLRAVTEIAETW

Chain of IRR(h) (P14616 27-1297): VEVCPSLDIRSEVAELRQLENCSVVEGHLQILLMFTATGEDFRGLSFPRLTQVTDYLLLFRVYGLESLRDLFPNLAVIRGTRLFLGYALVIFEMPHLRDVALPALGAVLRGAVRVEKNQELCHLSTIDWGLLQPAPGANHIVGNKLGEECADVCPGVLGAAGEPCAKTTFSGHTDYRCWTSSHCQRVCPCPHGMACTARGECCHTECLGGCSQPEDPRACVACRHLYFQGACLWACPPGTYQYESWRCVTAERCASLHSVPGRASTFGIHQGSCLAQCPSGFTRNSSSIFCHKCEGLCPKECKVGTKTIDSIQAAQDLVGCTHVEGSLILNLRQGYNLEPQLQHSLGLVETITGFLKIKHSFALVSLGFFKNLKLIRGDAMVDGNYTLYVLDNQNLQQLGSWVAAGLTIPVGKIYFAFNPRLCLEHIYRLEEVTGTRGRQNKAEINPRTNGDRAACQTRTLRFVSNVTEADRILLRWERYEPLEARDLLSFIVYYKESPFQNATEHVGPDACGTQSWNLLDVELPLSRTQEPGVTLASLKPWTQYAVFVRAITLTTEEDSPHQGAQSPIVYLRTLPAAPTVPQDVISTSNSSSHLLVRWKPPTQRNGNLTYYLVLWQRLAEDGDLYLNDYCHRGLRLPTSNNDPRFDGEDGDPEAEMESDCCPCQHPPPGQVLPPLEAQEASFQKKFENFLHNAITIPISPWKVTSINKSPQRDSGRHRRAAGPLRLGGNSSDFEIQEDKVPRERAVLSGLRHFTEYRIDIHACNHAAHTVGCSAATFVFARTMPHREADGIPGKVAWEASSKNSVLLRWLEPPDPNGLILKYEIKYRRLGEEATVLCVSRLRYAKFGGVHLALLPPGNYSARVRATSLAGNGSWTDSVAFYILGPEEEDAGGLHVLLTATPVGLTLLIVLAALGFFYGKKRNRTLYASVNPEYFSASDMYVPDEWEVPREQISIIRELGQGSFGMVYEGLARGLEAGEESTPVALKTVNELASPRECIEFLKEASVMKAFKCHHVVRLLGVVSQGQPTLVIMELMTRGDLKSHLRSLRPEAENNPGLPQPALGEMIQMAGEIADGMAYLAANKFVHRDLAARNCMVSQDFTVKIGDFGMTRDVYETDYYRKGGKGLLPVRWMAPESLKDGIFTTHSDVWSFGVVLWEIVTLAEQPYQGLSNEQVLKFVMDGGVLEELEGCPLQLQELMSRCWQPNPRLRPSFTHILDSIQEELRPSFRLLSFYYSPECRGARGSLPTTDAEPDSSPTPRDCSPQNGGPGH

H-YARAAARQARAKALARQLGVAA-OH [MMI-0100]
activity at 100 µM (EphB4(h)): 62% | activity at 100 µM (Fms(h)): 89% | activity at 100 µM (IRR(h)): 85% | activity at 100 µM (PKD2(h)): 84% | activity at 100 µM (Txk(h)): 87%

HRRIKAWLKKIKALARQLGVAA (Mammalian) [MMI-0500]
% activity (EphB4(h)): 38% | % activity (Fms(h)): 14% | % activity (IRR(h)): 10% | % activity (PKD2(h)): 10% | % activity (Txk(h)): 10%

YARAAARQARAKALNRQLGVA (Mammalian) [MMI-0200]
% activity (EphB4(h)): 131% | % activity (Fms(h)): 92% | % activity (IRR(h)): 69% | % activity (PKD2(h)): 78% | % activity (Txk(h)): 98%

From US10087225B2, “Formulation of MK2 inhibitor peptides” (MOERAE MATRIX, INC., priority 2015, dated 2018)
